B1: extracellular domain of A. thaliana TDR (residues 30-642) [modified: N-glycosylated at N111, N356, N378, N471 and N525 (one GlcNAc visible on each in the structures); N-glycosylated at N111, N356, N378, N471 and N525 (one … (parent)
chain 1: HEVPSGPNPISN
chain 2: LKFSPQLLSLLSLKTSLSGPPSAFQDWKVPVNGQNDAVWCSWSGVVCDNVTAQVISLDLSHRNLSGRIPIQIRYLSSLLYLNLSGNSLEGSFPTSIFDLTKLTTLDISRNSFDSSFPPGISKLKFLKVFNAFSNNFEGLLPSDVSRLRFLEELNFGGSYFEGEIPAAYGGLQRLKFIHLAGNVLGGKLPPRLGLLTELQHMEIGYNHFNGNIPSEFALLSNLKYFDVSNCSLSGSLPQELGNLSNLETLFLFQNGFTGEIPESYSNLKSLKLLDFSSNQLSGSIPSGFSTLKNLTWLSLISNNLSGEVPEGIGELPELTTLFLWNNNFTGVLPHKLGSNGKLETMDVSNNSFTGTIPSSLCHGNKLYKLILFSNMFEGELPKSLTRCESLWRFRSQNNRLNGTIPIGFGSLRNLTFVDLSNNRFTDQIPADFATAPVLQYLNLSTNFFHRKLPENIWKAPNLQIFSASFSNLIGEIPNYVGCKSFYRIELQGNSLNGTIPWDIGHCEKLLCLNLSQNHLNGIIPWEISTLPSIADVDLSHNLLTGTIPSDFGSSKTITTFNVSYNQLIGPIPSGSFAHLNPSFFSSNEGLCGDLVGKPCNSDRFNAGNADIDG

One test covers variants of B1. Briefly: ITC. The settings on record: with Tracheary Element Differentiation Inhibitory Factor (TDIF) peptide [modified: hydroxyproline at 4 and 7, parent: 103 nM.
Consider chain 2 F252A, for which the Kd was 787 nM.

Take chain 2 F250A: the Kd was 307 nM.

Regarding chain 2 F250A F252A, the Kd was 887 nM.

On to chain 2 R109A F132A S133A S158A Y159A, for which the Kd was 3240 nM.

With chain 2 W324A, the Kd was determined as 862 nM.

Take chain 2 S276A: the Kd worked out at 455 nM.

As to chain 2 Y205A, the Kd was found to be 1650 nM.

In the case of chain 2 R392A R394A, the Kd stood at 306 nM.

The test is the same for the next values; noted with them: with Tracheary Element Differentiation Inhibitory Factor (TDIF) peptide [modified: hydroxyproline at 4 and 7, parent: 1.
With chain 2 F252A, the ratio to parent was found to be 7.6.

In the case of chain 2 Y205A, the ratio to parent was 16.

The test is the same for the next values; noted with them: with extracellular domain of A. thaliana TDR (residues 30-642) [modified: N-glycosylated at N111, N356, N378, N471 and N525 (one GlcNAc visible on each in the struct); parent: 103 nM.
For the variant chain 1 HEVPSGPNPISA [chain 1 N12A], the Kd stood at 4700 nM.

Take chain 1 AAAPSGPNPISN [chain 1 H1A E2A V3A]: the Kd came to 252000 nM.

Take chain 1 HRVPSGPNPISN [chain 1 E2R]: the Kd was 543 nM.

As for chain 1 HAVPSGPNPISN [chain 1 E2A], the Kd turned out to be 327 nM.

For the variant chain 1 HEAPSGPNPISN [chain 1 V3A], the Kd is 1400 nM.

With chain 1 HEVPSTPNPISN [chain 1 G6T], the Kd is 2080 nM.

On to chain 1 HEVPSAPNPISN [chain 1 G6A], for which the Kd worked out at 1440 nM.

As to chain 1 HEVPSGPAPISN [chain 1 N8A], the Kd was 308 nM.

As for chain 1 HEVPSGPNPASN [chain 1 I10A], the Kd was 641 nM.

For the variant chain 1 AEVPSGPNPISN [chain 1 H1A], the Kd was determined as 11800 nM.

For the variant chain 1 REVPSGPNPISN [chain 1 H1R], the Kd came out at 329 nM.

Still in this test, the particulars now being: with extracellular domain of A. thaliana TDR (residues 30-642) [modified: N-glycosylated at N111, N356, N378, N471 and N525 (one GlcNAc visible on each in the struct); parent: 1.
For chain 1 HEVPSGPNPISA [chain 1 N12A], the ratio to parent stood at 45.6.

In the case of chain 1 AAAPSGPNPISN [chain 1 H1A E2A V3A], the ratio to parent turned out to be 2450.

Regarding chain 1 HEVPSGPNPASN [chain 1 I10A], the ratio to parent stood at 6.2.

By Kd is commonly meant the constant that tells how readily two partners part at equilibrium.

The values above are taken from PMC5383425, “Differential CLE peptide perception by plant receptors implicated from structural and functional analyses of TDIF-TDR interactions” (PLoS ONE, 2017).
